Experimental data reported in patent US20230131338A1.

Assays:
[1] = target: human FXIa (activated; Factor XIa protein, human plasma, Enzyme Research Laboratories cat. HFXIa 1111a) (human) (UniProt P03951); test: SPR (Biacore 8K), mAb captured via anti-human Fc, plasma-derived hFXIa injected, 25°C
[2] = target: human FXI (zymogen; Factor XI protein, human plasma, Enzyme Research Laboratories cat. HFXI 1111) (human) (UniProt P03951); test: SPR (Biacore 8K), mAb captured via anti-human Fc, plasma-derived hFXI injected, 25°C
[3] = target: human FXIa (activated; Factor XIa protein, human plasma, Enzyme Research Laboratories cat. HFXIa 1111a) (human) (UniProt P03951); test: SPR (Biacore 8K), mAb captured via anti-human Fc, plasma-derived hFXIa injected, 37°C
[4] = target: human FXI (zymogen; Factor XI protein, human plasma, Enzyme Research Laboratories cat. HFXI 1111) (human) (UniProt P03951); test: SPR (Biacore 8K), mAb captured via anti-human Fc, plasma-derived hFXI injected, 37°C

“Isotype control mAb [REGN1945] (antibody)” gave a 25 nM Ag Bound (RU) [1] of -1.4 RU, a 25 nM Ag Bound (RU) [2] of 1.3 RU and a 25 nM Ag Bound (RU) [3] of 0.3 RU. The 25 nM Ag Bound (RU) [4] was 3.2 RU.
